Assay in all cases: cell-based or functional assay
Experiment [1] concerns the target SARS-CoV-2 Omicron BA.4.6 spike protein (R346T, F486V) (SARS-CoV-2) (UniProt P0DTC2).
In experiment [2] the target is SARS-CoV-2 spike (S) protein, C.1.2 variant (SARS-CoV-2) (UniProt P0DTC2).
Experiment [3] concerns the target SARS-CoV-2 spike (S) protein, Iota variant (B.1.526) (SARS-CoV-2) (UniProt P0DTC2).
For experiment [4], the target named is SARS-CoV-2 spike (S) protein, Lambda variant (C.37) (SARS-CoV-2) (UniProt P0DTC2).
The target of experiment [5] is SARS-CoV-2 spike (S) protein, Mu variant (B.1.621) (SARS-CoV-2) (UniProt P0DTC2).
Experiment [6] concerns the target SARS-CoV-2 spike protein, Alpha variant (B.1.1.7) (SARS-CoV-2).
Experiment [7] has as its target SARS-CoV-2 spike protein, Beta variant 1 (B.1.351.v1) (SARS-CoV-2).
Experiment [8] concerns the target SARS-CoV-2 spike protein, Delta variant (B.1.617.2) (SARS-CoV-2).
Experiment [9] concerns the target SARS-CoV-2 spike protein, Gamma variant (P.1) (SARS-CoV-2).
Experiment [10] addresses SARS-CoV-2 spike protein, Omicron variant BA.1 (SARS-CoV-2) (UniProt P0DTC2).
The target of experiment [11] is SARS-CoV-2 spike protein, Omicron variant BA.2 (SARS-CoV-2) (UniProt P0DTC2).
Experiment [12] addresses SARS-CoV-2 spike protein, Omicron variant BA.2.12.1 (SARS-CoV-2) (UniProt P0DTC2).
Experiment [13] concerns the target SARS-CoV-2 spike protein, Omicron variant BA1.1.529 (SARS-CoV-2) (UniProt P0DTC2).
Experiment [14] has as its target SARS-CoV-2 Omicron variant BA.2.75.2 spike protein (SARS-CoV-2).
In experiment [15] the target is SARS-CoV-2 Omicron variant BQ.1.1 spike protein (SARS-CoV-2).
For experiment [16], the target named is SARS-CoV-2 Omicron variant XBB spike protein (SARS-CoV-2).
Experiment [17] concerns the target SARS-CoV-2 spike (S) protein, Omicron sublineage BA.1.1 (R346K) (SARS-CoV-2) (UniProt P0DTC2).
Experiment [18] addresses SARS-CoV-2 spike (S) protein, Omicron sublineage BA.4.6 (R346T, F486V) (SARS-CoV-2) (UniProt P0DTC2).
Experiment [19] has as its target SARS-CoV-2 spike (S) protein, Omicron sublineage BA.4.7 (R346S, F486V) (SARS-CoV-2) (UniProt P0DTC2).
In experiment [20] the target is SARS-CoV-2 spike (S) protein, Omicron sublineage BF.7 (R346T, F486V) (SARS-CoV-2) (UniProt P0DTC2).
The target of experiment [21] is SARS-CoV-2 spike (S) protein, Omicron sublineage BQ 1.1 (R346T, K444T, F486V) (SARS-CoV-2) (UniProt P0DTC2).

Sequence of A19-46.1 (antibody) (VH): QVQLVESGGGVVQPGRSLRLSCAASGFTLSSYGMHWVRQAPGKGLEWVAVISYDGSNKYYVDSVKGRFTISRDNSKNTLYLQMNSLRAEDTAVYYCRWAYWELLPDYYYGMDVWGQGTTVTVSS
Sequence of A19-46.1 (antibody) (VL): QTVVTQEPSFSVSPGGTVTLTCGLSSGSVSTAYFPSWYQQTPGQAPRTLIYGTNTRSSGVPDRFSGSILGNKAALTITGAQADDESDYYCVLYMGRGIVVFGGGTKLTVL

As to A19-46.1 (antibody), the IC50, pseudovirus neutralization was > 10000 nM in [1]; 0.19 nM in experiment [6]; 0.807 nM in experiment [7]; > 66.7 nM in [8]; 0.26 nM in [9]; 0.958 nM in [10]. The IC50, pseudovirus neutralization in [11] is 0.69 nM; in [12], > 66.7 nM; in experiment [13], 1.84 nM. Further, the IC80, pseudovirus neutralization was > 10000 nM in experiment [1]; 0.486 nM in experiment [6]; 2.07 nM in experiment [7]; > 66.7 nM in experiment [8]; 0.7 nM in experiment [9]; 2.28 nM in [10]. Moreover, the IC80, pseudovirus neutralization is 2.23 nM in experiment [11], > 66.7 nM in [12] and 2.84 nM in experiment [13]. Moreover, the pseudovirus neutralization IC50 (nM (inferred)) is 11.6 in experiment [2], 0.803 in experiment [3], > 66.7 in [4] and 1.34 in experiment [5]. For the same substance, the pseudovirus neutralization IC80 (nM (inferred)) in [2] is 21; in experiment [3], 1.88; in [4], > 66.7; in experiment [5], 3.81.
As for bebtelovimab (LY1404) (antibody), the IC50, pseudovirus neutralization is 0.00567 µg/mL in experiment [14]; > 10 µg/mL in experiment [15]; > 10 µg/mL in experiment [16]; 26.4 nM in [17]; 22.3 nM in [18]; 5.9 nM in [19]. Also, the values for the IC50, pseudovirus neutralization in [20] and in experiment [21] were 16.9 nM and > 10000 nM, respectively. Moreover, the IC80, pseudovirus neutralization in [14] was 0.0207 µg/mL; in experiment [15] it was > 10 µg/mL; in [16], > 10 µg/mL; in experiment [17] it was 65.1 nM; in [18], 25.4 nM; in [19], 16.1 nM. The values for the IC80, pseudovirus neutralization in experiment [20] and in experiment [21] were 25.2 nM and > 10000 nM, respectively.

The record behind these values is US20240109955A1.
